Our source for the Kd and maximum leading-strand replication rate in pulse-chase with the yeast replisome (+RFC/PCNA, Polδ omitted) with 180 nM CAF-1 added; ∼1.09 kb/min without CAF-1 values is paper PMC10164577.

Read-outs that look alike come from different tables or passages of the source. Bounds are passed on as bounds.

The target of assay [1] is Histones H3–H4 (H3 C110A-H4 E63C), Alexa488-labeled (Xenopus laevis). The experiment in a line: fluorescence polarisation; 10 nM Alexa488-labeled H3–H4 with increasing CAF-1, Polϵ, Polδ or RPA; 25 mM TRIS pH 7.5, 300 mM NaCl, 5% glycerol, 1 mM EDTA, 0.01% IGEPAL, 0.01% CHAPS, 1 mM DTT; one site binding curve. For orientation: Polarisation of emitted light reports the rotation of a fluorescent probe.

Assay [2] concerns the target Proliferating Cell Nuclear Antigen (PCNA), wild type (yeast) (UniProt P15873).
Assay [3] addresses PCNA (Saccharomyces cerevisiae) (UniProt P15873). The note with it: cited from earlier work.
The target is the same in assay [4]. Conditions: cited from earlier work. This is another data set of the same source.
Assay [5] deals with PCNA K164C, labeled with Alexa Fluor 546 (yeast) (UniProt P15873). Kind of assay: cross-linking; limiting PCNA: 50 nM AF546-PCNA K164C loaded on nicked pUC19 (15 nM) by full-length RFC (15 nM), CAF-1 titrated 0-1 μM, 100-110 mM NaCl; 0.2% glutaraldehyde; nuclease digestion; SDS-PAGE, PCNA fluorescence, band intensities; affinities estimated.
Sequence of PCNA K164C, labeled with Alexa Fluor 546 (yeast) (P15873 whole entry K164C): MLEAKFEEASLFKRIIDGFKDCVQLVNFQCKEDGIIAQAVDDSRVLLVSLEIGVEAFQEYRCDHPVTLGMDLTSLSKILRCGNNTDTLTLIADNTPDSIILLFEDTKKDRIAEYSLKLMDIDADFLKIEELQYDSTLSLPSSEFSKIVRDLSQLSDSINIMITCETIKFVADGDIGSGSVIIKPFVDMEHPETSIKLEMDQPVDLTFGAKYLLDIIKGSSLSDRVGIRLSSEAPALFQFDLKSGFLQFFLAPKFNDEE

Sequence of PCNA (Saccharomyces cerevisiae) (P15873 whole entry): as the sequence (P15873 whole entry K164C) above, with C164K counted along it
Sequence of DNA polymerase epsilon (P21951 whole entry): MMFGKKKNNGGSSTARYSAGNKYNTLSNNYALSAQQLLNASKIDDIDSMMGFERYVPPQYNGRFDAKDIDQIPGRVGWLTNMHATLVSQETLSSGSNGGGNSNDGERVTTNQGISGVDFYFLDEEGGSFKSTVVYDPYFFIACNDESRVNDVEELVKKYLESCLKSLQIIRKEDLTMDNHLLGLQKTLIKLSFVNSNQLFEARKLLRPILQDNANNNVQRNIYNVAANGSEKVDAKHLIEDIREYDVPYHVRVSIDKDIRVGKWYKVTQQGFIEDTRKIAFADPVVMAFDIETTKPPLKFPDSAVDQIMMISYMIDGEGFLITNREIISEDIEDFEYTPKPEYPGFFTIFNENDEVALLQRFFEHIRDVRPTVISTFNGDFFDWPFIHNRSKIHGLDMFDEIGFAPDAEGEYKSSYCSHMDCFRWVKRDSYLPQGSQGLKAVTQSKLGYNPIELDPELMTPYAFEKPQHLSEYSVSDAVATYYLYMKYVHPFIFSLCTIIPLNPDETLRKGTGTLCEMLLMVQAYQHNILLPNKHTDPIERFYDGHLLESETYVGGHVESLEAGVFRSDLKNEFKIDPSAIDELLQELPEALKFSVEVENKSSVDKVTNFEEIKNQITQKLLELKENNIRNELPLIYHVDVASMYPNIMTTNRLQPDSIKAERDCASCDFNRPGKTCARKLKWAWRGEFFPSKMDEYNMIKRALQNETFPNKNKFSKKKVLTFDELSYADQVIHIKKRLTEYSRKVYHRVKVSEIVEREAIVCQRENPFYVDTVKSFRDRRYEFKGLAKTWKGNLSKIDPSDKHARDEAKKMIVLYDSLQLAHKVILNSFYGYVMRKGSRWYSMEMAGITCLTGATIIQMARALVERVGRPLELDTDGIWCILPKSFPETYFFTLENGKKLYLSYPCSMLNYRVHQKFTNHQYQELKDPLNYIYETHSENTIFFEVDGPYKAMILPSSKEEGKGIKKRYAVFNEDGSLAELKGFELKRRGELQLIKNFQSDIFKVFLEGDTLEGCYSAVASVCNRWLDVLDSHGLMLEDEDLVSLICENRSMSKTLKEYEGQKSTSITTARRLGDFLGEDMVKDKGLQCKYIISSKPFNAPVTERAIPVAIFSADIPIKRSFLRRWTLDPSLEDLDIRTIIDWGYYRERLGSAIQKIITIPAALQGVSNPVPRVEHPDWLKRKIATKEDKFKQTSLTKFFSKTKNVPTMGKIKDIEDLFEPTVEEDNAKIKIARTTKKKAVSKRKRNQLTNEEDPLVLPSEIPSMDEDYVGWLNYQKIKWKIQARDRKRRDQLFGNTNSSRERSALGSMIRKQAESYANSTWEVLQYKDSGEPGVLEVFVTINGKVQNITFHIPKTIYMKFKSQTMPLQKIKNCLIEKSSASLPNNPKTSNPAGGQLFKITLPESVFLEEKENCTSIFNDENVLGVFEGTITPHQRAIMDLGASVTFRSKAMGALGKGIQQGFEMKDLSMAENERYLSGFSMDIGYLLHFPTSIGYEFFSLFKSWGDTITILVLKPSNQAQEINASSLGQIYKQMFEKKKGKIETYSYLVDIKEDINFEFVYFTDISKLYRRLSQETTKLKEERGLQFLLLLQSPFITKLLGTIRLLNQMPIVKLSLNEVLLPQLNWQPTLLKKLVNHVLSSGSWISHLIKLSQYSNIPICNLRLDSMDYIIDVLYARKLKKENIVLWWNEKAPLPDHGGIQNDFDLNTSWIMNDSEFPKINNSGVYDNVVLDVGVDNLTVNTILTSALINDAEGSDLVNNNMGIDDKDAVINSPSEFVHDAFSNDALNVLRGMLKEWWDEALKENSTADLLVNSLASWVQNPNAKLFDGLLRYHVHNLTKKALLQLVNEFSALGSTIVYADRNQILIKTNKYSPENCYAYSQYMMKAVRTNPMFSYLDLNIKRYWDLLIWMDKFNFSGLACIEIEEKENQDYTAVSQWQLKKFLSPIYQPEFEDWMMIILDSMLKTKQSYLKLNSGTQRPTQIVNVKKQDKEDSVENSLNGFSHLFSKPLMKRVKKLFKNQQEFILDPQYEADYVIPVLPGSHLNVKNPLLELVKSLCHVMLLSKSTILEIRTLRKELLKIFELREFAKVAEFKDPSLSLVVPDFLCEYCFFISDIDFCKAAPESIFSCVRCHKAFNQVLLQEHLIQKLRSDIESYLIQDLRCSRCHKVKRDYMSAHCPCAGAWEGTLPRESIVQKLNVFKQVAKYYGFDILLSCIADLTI
Sequence of DNA polymerase epsilon (P24482 whole entry, further chain): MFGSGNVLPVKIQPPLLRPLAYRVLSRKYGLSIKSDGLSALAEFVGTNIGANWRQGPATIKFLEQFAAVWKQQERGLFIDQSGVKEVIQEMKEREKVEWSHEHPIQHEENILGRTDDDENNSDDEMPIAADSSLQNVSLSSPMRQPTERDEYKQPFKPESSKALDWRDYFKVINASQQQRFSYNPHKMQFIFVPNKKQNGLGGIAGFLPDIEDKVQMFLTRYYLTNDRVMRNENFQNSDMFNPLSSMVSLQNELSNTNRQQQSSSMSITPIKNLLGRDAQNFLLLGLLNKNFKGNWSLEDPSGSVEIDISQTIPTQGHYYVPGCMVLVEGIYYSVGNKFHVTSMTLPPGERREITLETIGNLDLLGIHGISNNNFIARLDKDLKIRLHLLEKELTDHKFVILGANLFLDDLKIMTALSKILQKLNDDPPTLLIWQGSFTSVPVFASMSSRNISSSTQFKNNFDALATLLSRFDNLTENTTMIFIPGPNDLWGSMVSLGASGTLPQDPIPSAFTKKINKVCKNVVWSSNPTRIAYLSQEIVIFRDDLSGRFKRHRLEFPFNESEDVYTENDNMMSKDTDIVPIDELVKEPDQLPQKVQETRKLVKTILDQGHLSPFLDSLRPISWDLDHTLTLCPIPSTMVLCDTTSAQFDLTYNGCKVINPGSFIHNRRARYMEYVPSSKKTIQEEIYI
Sequence of DNA polymerase epsilon (P27344 whole entry, further chain): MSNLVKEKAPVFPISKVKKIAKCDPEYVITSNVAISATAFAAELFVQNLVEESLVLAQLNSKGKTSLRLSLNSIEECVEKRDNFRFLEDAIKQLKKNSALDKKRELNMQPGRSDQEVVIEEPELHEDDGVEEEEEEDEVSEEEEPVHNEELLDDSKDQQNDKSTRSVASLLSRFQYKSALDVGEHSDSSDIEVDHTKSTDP
Sequence of DNA polymerase epsilon (Q04603 whole entry, further chain): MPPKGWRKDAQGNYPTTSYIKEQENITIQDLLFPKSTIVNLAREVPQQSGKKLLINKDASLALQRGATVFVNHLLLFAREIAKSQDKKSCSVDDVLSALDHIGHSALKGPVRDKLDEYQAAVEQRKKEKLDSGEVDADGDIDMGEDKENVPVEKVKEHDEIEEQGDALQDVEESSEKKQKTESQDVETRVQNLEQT
Sequence of Proliferating Cell Nuclear Antigen (PCNA), wild type (yeast) (P15873 whole entry): as the sequence (P15873 whole entry K164C) above, with C164K counted along it

In the case of DNA polymerase epsilon (Polϵ) (complex), in assay [1], the Kd – broadly, the free concentration of one partner at which half of the binding sites on the other are occupied at equilibrium, for simple one-to-one binding – came out at 28 nM. This substance also yielded a maximum leading-strand replication rate in pulse-chase with the yeast replisome (+RFC/PCNA, Polδ omitted) with 180 nM CAF-1 added; ∼1.09 kb/min without CAF-1 in assay [2] of 0.85 kb/min.

Regarding “Chromatin Assembly Factor-1 (CAF-1), wild type (from UniProt Q12495 1-606; Q04199 1-468; P13712 1-422) (complex)”, the dissociation constant Kd in assay [1] came out at 1.1 nM.

As to “DNA polymerase epsilon (from UniProt P21951)”, the Kd in assay [3] was 326 nM.

For “DNA polymerase delta (from UniProt P15436)”, the Kd in assay [4] was 13.7 nM.

“CAF-1_ΔAD mutant (acidic domain deleted) (from UniProt Q12495 1-606; Q04199 1-468; P13712 1-422) (complex)”: the dissociation constant (Kd) in assay [5] is less than 50 nM.
